Residue numbers refer to the chain shown, from its start.
B1: KS04 (antibody, human IgG1, kappa, V domains shown)
VH: QVQLVESGGGLVKPGGSLRLSCAASGFTFSNAWMNWVRQAPGKGLEWVAEIRSKSINSATHYAESVKGRFTISRDNSKKTLYLEMNSLRVEDTAVYYCSRNYYGSTYDYWGQGTTLTVSS
VL: EIVLTQSPDFQSVTPKEKVTITCRASQSIYSSLHWYQQKPDQSPKLLIKFASQSVSGVPSRFSGSGSGTDFTLTINSLEAEDAATYYCQQSHSWPFTFGSGTNVDIKR
B2: KS07 (antibody, human IgG1, kappa, V domains shown)
VH: B1 VH
VL: B1 VL with S93F
B3: KS08 (antibody, human IgG1, kappa, V domains shown)
VH: B1 VH
VL: EIVLTQSPDFQSVSPKETVTITCRASQTVHMSLHWYQQKPNQSPRLLIKYGSQSFSGVPSRFSGSGSGTDFTLTINSLEPEDAATYYCQQSHFWPFTFGSGTNVDIKR
B4: KS10 (Glu) (antibody, V domains shown)
VH: B1 VH with Q1E, N76D, K79N, L81V, E84Q, R89K, V90T
VL: B1 VL with S93W
notes: Full-length IgG1 from CHO cells; VH SH01 with the first amino acid Glu, VK SH08
B5: KS11 (antibody, human IgG1, kappa, V domains shown)
VH: B1 VH
VL: B3 VL with F93W
B6: KS12 (antibody, human IgG1, kappa, V domains shown)
VH: B1 VH
VL: B1 VL with S93W
B7: KS02 (antibody, human IgG1, kappa, V domains shown)
VH: B1 VH
VL: B3 VL with F93S
B8: KS-2E (Fab, V domains shown)
VH: B1 VH with D108Q
VL: B3 VL with F93K
notes: Humanized Fab (heavy chain Fd fragment and light chain), expressed in E. coli periplasm

What was measured:
[1] = target: T1, human tumor necrosis factor-α (R & D Co., Catalog Number: 210-TA-050) (human, UniProt P01375 77-233); assay: cell-based or functional assay
T1 sequence (P01375 77-233 limits assumed): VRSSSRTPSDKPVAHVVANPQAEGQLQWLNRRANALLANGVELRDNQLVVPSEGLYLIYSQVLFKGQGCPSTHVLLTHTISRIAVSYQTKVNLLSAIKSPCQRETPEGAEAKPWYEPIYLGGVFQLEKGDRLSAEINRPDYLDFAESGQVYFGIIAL

[2] = target: T1, human tumor necrosis factor-α (R & D …); assay: BLI, Octet RED 96, biotin-hTNF-α on streptavidin sensor, antibody in solution
Description: hTNF-α (R & D Co., 210-TA-050) and NHS-LCLC-biotin (Catalog Number: 21338, purchased from Thermo-fisher Co.,) were mixed uniformly at a molar ratio of 1:3 and kept at room temperature for 1 hour. Then, the remaining NHS-LCLC-biotin was removed by a PD-10 desalting column (Catalog Number: 17-0851-01, purchased from GE Co.,). The final conjugate products obtained were 50 μg/ml of biotin-hTNF-α.

[3] = target: T1, human tumor necrosis factor-α (R & D …); assay: ELISA, plate coated with human TNF-α, Fab titrated, anti-human C-Kappa-HRP
[4] = target: T1, human tumor necrosis factor-α (R & D …); assay: cell-based or functional assay; remark: listed apart in the source

Binder	EC50, L929 cytotoxicity experiment [1] [nM]	also measured
B1	0.126	–
B2	0.1	–
B3	0.113	–
B4	0.028	Kd [2]: 2.18 pM; koff [2]: 1.02e-07 s⁻¹; kon [2]: 46900 M⁻¹ s⁻¹
B5	0.059	–
B6	0.136	–
B7	0.109	–
B8	–	EC50 [3]: 6.66 nM; EC50 (read off the curve); L929 cytotoxicity assay, inhibition rate (%) [4]: ~4 nM
